# Data published in patent publication US9658208B2, “Methods and G proteins for screening and identifying ligands of G protein-coupled receptors” (Fred Hutchinson Cancer Research Center, priority 2011, dated 2017).
# T1: dopamine D4 receptor (Mus musculus, UniProt P51436)
# T1 construct: expressed in transfected cells; host or cells: HEK-293
# T1 sequence (P51436 1-387): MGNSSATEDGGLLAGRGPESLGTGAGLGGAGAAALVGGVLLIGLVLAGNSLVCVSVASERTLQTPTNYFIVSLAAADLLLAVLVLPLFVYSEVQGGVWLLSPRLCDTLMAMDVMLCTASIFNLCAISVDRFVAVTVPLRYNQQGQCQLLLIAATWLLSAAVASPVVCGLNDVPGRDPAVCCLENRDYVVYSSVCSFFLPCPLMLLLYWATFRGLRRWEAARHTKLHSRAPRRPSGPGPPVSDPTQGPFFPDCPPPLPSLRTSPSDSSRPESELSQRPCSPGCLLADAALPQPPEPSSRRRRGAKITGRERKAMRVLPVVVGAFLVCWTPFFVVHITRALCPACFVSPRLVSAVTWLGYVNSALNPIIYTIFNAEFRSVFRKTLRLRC
# B1: Gαs-Gαo-13: Gαs-based chimeric G protein, final 13 C-terminal amino acids substituted with those of Gαo (protein)
# chain: MGCLGNSKTEDQRNEEKAQREANKKIEKQLQKDKQVYRATHRLLLLGAGESGKSTIVKQMRILHVNGFNGEGGEEDVPDYASNSDGEKATKVQDIKNNLKEAIETIVAAMSNLVPPVELANPENQFRVDYILSVMNVPNFDFPPEFYEHAKALWEDEGVRACYERSNEYQLIDCAQYFLDKIDVIKQADYVPSDQDLLRCRVLTSGIFETKFQVDKVNFHMFDVGGQRDERRKWIQCFNDVTAIIFVVASSSYNMVIREDNQTNRLQEALNLFKSIWNNRWLRTISVILFLNKQDLLAEKVLAGKSKIEDYFPEFARYTTPEDATPEPGEDPRVTRAKYFIRDEFLRISTASGDGRHYCYPHFTCAVDTENIRRVFNDCRDIIIANNLRGCGLY
# modifications: Chimeric protein
# notes: Gαs-based chimeric G protein, final 13 C-terminal amino acids substituted with those of Gαo
# What was measured:
# Type in all cases: cell-based
# [1] = tested on: odorant receptor (OR) that recognizes vanillin and eugenol (Rho20-eugenol receptor); test: CRE-SEAP reporter gene assay, Gαs-coupled odorant receptor; conditions: HEK-293 cells, 500 uM eugenol, 48 hours
# Excerpt: A high throughput screening assay was investigated for Gαs-coupled GPCRs based on the CRE-SEAP reporter gene construct, in which five tandem cAMP response elements […] lie upstream of a gene encoding secreted alkaline phosphatase (SEAP) (Durocher et al., Anal Biochem 284: 316-326 (2000)). To ensure the general utility of the CRE-SEAP reporter gene construct for the detection of Gαs-coupled GPCR activation, HEK-293 cells were cotransfected with the CRE-SEAP construct together with expression vectors encoding either a β2-adrenergic receptor or an odorant receptor (OR) that recognizes vanillin and eugenol. Both receptors are GPCRs that couple to Gαs subunits. The HEK-293 cells expressing the β2-adrenergic receptor were grown for 48 hours in the presence or absence of 10 uM isoproterenol. The HEK-293 cells expressing the OR were grown for 48 hours in the presence of 500 uM eugenol. After growing in the presence of the ligands, the cells were assayed for SEAP activity using a fluorescent alkaline phosphatase substrate and a fluorescence plate reader. […]
# Following transfection, the cells were maintained for 48 hours in 200 ul serum free media containing either 10 uM isoproterenol (Sigma) or 500 uM eugenol (Sigma). […] Fluorescence was then measured using a CytoFluor 4000 multi well plate reader (Applied Biosystems).
# [2] = tested on: nine GPCRs that do not bind to Gαs (serotonin 1b, neuropeptide Y1, leukotriene B4, dopamine D4, GNRH, UDP, calcium-sensing, T1R2/T1R3); test: CRE-SEAP reporter gene assay, coupling of chimeric G proteins with a variety of GPCRs; conditions: HEK-293 cells, GPCR ligand 48 hours
# Excerpt: (§1) The GPCRs examined were those that couple with Gαi/Gαo subunits (serotonin 1b, neuropeptide Y1, leukotriene B4, and dopamine D4), Gαq (GNRH, UDP, and calcium-sensing receptors), and the orphan mammalian sweet taste receptor complex (T1R2 and T1R3) with unknown coupling preference. The Gαs-based chimeric G proteins examined in this example were Gαs-Gαi-5, Gαs-Gαt-13 (SEQ ID NO: 3), Gαs-Gαo-13 (SEQ ID NO: 4), Gαs-Gαi-13 (SEQ ID NO: 5), Gαs-Gαz-6 (SEQ ID NO: 18), Gαs-Gα15-13 (SEQ ID NO: 7), Gαs-Gαk-5 (SEQ ID NO: 2), and Gαs-Gαq-13 (SEQ ID NO: 8). The chimeric G protein constructs were prepared as described herein. For the coupling assay, HEK-293 cells were cotransfected with each of the Gαs-based chimeric G protein constructs of interest together with the CRE-SEAP reporter gene construct and a cDNA encoding the GPCR to be tested. The transfected cells were cultured in the presence or absence of a GPCR ligand and then assayed for SEAP activity.
# Chimeric G protein cloning: An insert containing rat Gαs cDNA was cut out using the restriction enzymes SaII and HinDIII, and ligated into pcDNA3.1(−) cut with XhoI and HinDIII. The chimeric G proteins with the desired C-terminal amino acid substitutions from the Gαi, Gαt, Gαo, Gαz, Gα15, Gαk, and Gαq were prepared by PCR using Gαs as a template. More specifically, Gαs was PCR amplified between an internal EcoRI site and the stop codon, with a 3′ HinDIII placed immediately after the stop codon. A different 3′ oligonucleotide was used for each Gαs chimera and contained a 39 bp sequence that encoded the substituted amino acids at the C-terminus selected from the donor Gα subunit.
# GPCR cloning: Mouse 5-HT1B, mouse dopamine D4, human GNRH, and human neuropeptide Y1 receptors were cloned by PCR from cDNA templates (ATCC) and ligated into pcDNA 3.1(−) (Invitrogen) for expression in mammalian cells. […]
# (§2) Following transfection, the cells were maintained for 48 hours in 200 ul serum free media containing GPCR ligand. […] Fluorescence was then measured using a CytoFluor 4000 multi well plate reader (Applied Biosystems).
# dopamine D4 receptor = molecular target: T1, dopamine D4 receptor; test: CRE-SEAP reporter gene assay, coupling with dopamine D4; conditions: HEK-293 cells, 1 uM dopamine
# Excerpt: as §1
# Chimeric G protein cloning: An insert containing rat Gαs cDNA was cut out using the restriction enzymes SaII and HinDIII, and ligated into pcDNA3.1(−) cut with XhoI and HinDIII. […]
# as §2
Molecule,SEAP activity [1],GPCRs tested that coupled to the chimera [2],coupling with dopamine D4 receptor (dopamine D4 receptor)
C=CCc1ccc(O)c(OC)c1 [eugenol],increase in SEAP activity,,
B1,,seven of the nine,permitted a response
